# Changes are numbered by the printed parent chain. Names may count otherwise. “And” between values parts separate entries of the source, which are not always exact repeats. Identical values can stand only once. Where no end group is shown, it is not given here. fluorescein = fluorescein label at the peptide N-terminus
# B1: F-GDLV (fluorescein-RRRRWGDLV) (peptide)
# peptide: fluorescein-RRRRWGDLV
# notes: also called F-GLDV; source: synthetic peptide, bought: Genic Bio (Shanghai, China)
# B2: His-TAT-NOS1AP[400–506], denatured (domain or fragment, human, UniProt O75052 400-506, looked up)
# chain: HSPPLGAGLADFAHPAGSPLGRRDCLVKLECFRFLPPEDTPPPAQGEALLGGLELIKFRESGIASEYESNTDESEERDSWSQEELPRLLNVLQRQELGDGLDDEIAV
# notes: Same construct as m10, but prepared under denaturing conditions
# B3: NOS1AP[400–506] F431A cleaved from GST (domain or fragment, human, UniProt O75052 400-506, looked up)
# chain: B2 chain with F32A
# B4: Peptide GDLV (NH2-RRRRWGDLV-COOH) (peptide)
# peptide: H-RRRRWGDLV-OH
# notes: also called unlabelled GDLV; source: synthetic peptide, bought: Genic Bio (Shanghai, China)
# B5: His-TAT-NOS1AP[400–503], denatured (domain or fragment, human, UniProt O75052 400-503, looked up)
# chain: HSPPLGAGLADFAHPAGSPLGRRDCLVKLECFRFLPPEDTPPPAQGEALLGGLELIKFRESGIASEYESNTDESEERDSWSQEELPRLLNVLQRQELGDGLDDE
# notes: also called denatured NOS1AP[400–503]; NOS1AP 400-503 His-TAT fusion, Denatured
# B6: His-TAT-NOS1AP[400–503] E429A, denatured (domain or fragment, human, UniProt O75052 400-503, looked up)
# chain: B5 chain with E30A
# notes: NOS1AP, human, residues 400-503 with E429A in the ExF motif
# B7: NOS1AP[432–506] cleaved from GST (domain or fragment, human, UniProt O75052 432-506, looked up)
# chain: RFLPPEDTPPPAQGEALLGGLELIKFRESGIASEYESNTDESEERDSWSQEELPRLLNVLQRQELGDGLDDEIAV
# B8: Peptide EIAV (NH2-DSLDDEIAV-COOH) (peptide)
# peptide: H-DSLDDEIAV-OH
# notes: last 9 amino acids of rat/mouse NOS1AP; also called NOS1AP-9C; DSLDDEIAV (NOS1AP-9C); source: synthetic peptide, synthesized by Xigen AG (Lausanne, Switzerland)
# What was measured:
# Conditions in all cases: both partners purified
# His-nNOS[1–155] [1] = target: T1, His-nNOS[1–155] (human, UniProt P29475-1 1-155); experiment: fluorescence polarisation; increasing His-nNOS(1–155) added to 1 μM F-GDLV in 50 mM Tris pH 7.4, 100 mM NaCl, 1 mM EDTA, 0.1% BSA; one-site quadratic fit; triplicates from each of two nNOS batches
# T1 construct: Two batches were used
# His-nNOS[1–155] [2] = target: T1, His-nNOS[1–155]; experiment: as above; remark: listed apart in the source
# GST-nNOS[1–155] = target: T2, GST-nNOS[1–155] (human, UniProt P29475-1 1-155); experiment: pull-down; solid-phase no-wash binding assay: 5 μl beads bound to 1 μg GST-fused nNOS protein (or GST for background) rotated with His-TAT-NOS1AP peptides for 1 h at 4°C; unbound removed by centrifugation in filter plates, no wash; bound peptide quantified by fluorescent immunoblot; GST background subtracted; 1-site quadratic fit
# T2 construct: also called GST-fused nNOS protein
# His-nNOS[1–155] [3] = target: T1, His-nNOS[1–155]; experiment: fluorescence polarisation; competition FP: 1 μM F-GDLV, 4 μM His-nNOS(1–155), increasing competitor; approximate Kc (dissociation constant of the competitor, affinity for the nNOS PDZ pocket) from the single-site competition formula
Binder,Kd (GST-nNOS[1–155]) [µM],Ki (His-nNOS[1–155] [3]) [µM],other results
B1,–,–,Kd (His-nNOS[1–155] [1]): 10.2 µM and 11.2 µM; Kd (His-nNOS[1–155] [2]): 10.7 µM
B2,2.4,–,–
B3,–,> 10,–
B4,–,10.7,–
B5,5.3,–,–
B6,99,–,–
B7,–,> 10,–
B8,–,> 300,–
